Experimental data reported in patent publication US20260275344.

System: PiggyBac transposase
Test: cell_activity

## ITR-EF1a-GFP-ITR cssDNA
K562 day 21, donor alone ~2.37%
  activity: 39.3 % GFP+ cells
Primary human T cells day 14, donor alone ~0.16%
  activity: 7.54 % GFP+ cells
